Patent US10066025B2, “Compositions and methods for detecting, treating and preventing diseases and disorders” (YALE UNIVERSITY, priority 2012, dated 2018)

What was measured:
[1] = tested on: renal ischemia/reperfusion (IR) injury; assay: Histological detection of necrosis, apoptosis, neutrophil and macrophage infiltration after renal IR; assay type: in vivo, mice
Description: Adult male renalase deficient (KO) mice (Wu et al., 2011, Kidney Int 79: 853-860) on a C57BL/6 background were subjected to renal ischemia/reperfusion (IR) as described (Kim et al., 2009, Kidney Int 75: 809-823; Kim et al., 2010, Am J Physiol Renal Physiol 299(2):[…]-58). Renalase KO or wild type (WT) mice (C57BL/6 from Harlan Labs, Indianapolis, Ind.) were subjected to sham-operation or to 20 min. (moderate) or 30 min. (severe) renal ischemia and 24 hr. reperfusion. To test the renal protective effects of recombinant human renalase, mice were pretreated with saline (vehicle) or with recombinant renalase (0.5, 1.5 or 4.5 mg/kg, s.c.) 10 min. prior to 30 min. renal ischemia. It was also tested whether renalase treatment after completion of renal ischemia also provides renal protection. Separate cohorts of mice were treated with saline or with renalase (1.5 mg/kg, s.c.) 30 min. or 60 min. after reperfusion of the ischemic kidney. To test whether blocking alpha receptors would mimic the renal protective effects of human recombinant renalase administration, phentolamine (an alpha receptor antagonist, 5 mg/kg, i.p.) was given in some mice 15 min. before renal ischemia. An established grading scale of necrotic injury (0-4, Renal Injury Score) to the proximal tubules was used for the histopathological assessment of IR-induced damage as outlined by Jablonski et al. (1983, Transplantation 35: 198-204) and as described in previous studies (Lee et al., 2004, J Am Soc Nephrol 15: 102-111; Lee et al., 2004, Am J Physiol Renal Physiol 286: […]-[…]). Apoptosis was detected after renal IR with TUNEL staining as described (Park et al., 2011, Lab Invest 91: 63-84) using a commercially available in situ cell death detection kit (Roche, Indianapolis, Ind.) according to the instructions provided by the manufacturer. Kidney neutrophil and macrophage infiltrations were assessed with immunohistochemistry 24 hr. after IR as described previously (Park et al., 2011, Lab Invest 91: 63-84). Neutrophils and macrophages infiltrating the kidney were quantified in 5-7 randomly chosen 200× (neutrophils) or 400× (macrophages) microscope images fields in the corticomedullary junction and results were expressed as neutrophils counted per 200-400× field.

HK-2 cells [2] = assay: HK-2 cell cisplatin toxicity (WST-1 viability, western blot); assay type: cell-based, human; details: 20 μM cisplatin, 24 hrs
Description: Cultured HK-2 cells were incubated with 20 μM cisplatin for 24 hours with and without recombinant renalase. Renalase expression was examined by Western blot and cell viability (mitochondrial integrity) was determined spectrophotometrically using WST-1, a tetrazolium salt that is cleaved, by mitochondrial dehydrogenases of metabolically active and viable cells, to formazan (420-480 nm) (Boehringer Mannheim, Germany).
(§1) HK2 cells (human proximal tubular line) obtained from ATTC (Manassas, Va., USA) were cultured in DMEM/F12 supplemented with glutamine, 10% FBS and antibiotics, and were maintained at 37° C. in 5% CO2. Cells were exposed to cisplatin (20 μM) in the presence or absence of renalase for 24 hrs, and cell viability was assessed by the WST1 method (Roche Applied Science, Germany). Cells were then harvested in RIPA buffer (20 mM Tris-HCl pH 7.5, 150 mM NaCl, 1 mM Na2EDTA, 1 mM EGTA, 1% NP-40, 1% sodium deoxycholate, 2.5 mM sodium pyrophosphate, 1 mM β-glycerophosphate, 1 mM Na3VO4, 1 μg/ml leupeptin) supplemented with a protease and phosphatase inhibitor cocktail (Roche Applied Science, Germany). Proteins were separated by SDS-PAGE and Western blotting was carried out using the following antibodies: anti-renalase monoclonal (Desir et al., 2012, J Am Heart Assoc. 1:e002634; (Lee et al., 2013, J Am Soc Nephrol 24:445-455); anti caspase 3 (Cell Signaling Technology, MA, USA) and anti Bcl2 (Thermo Scientific, USA). Necrotic injury in HK-2 cells (ATCC, Manassas, Va.) was induced with exposure to 2 mM H2O2 for 2-8 hr and lactate dehydrogenase (LDH) released into cell culture media was measured as described using a commercial LDH assay kit (Promega, Madison, Wis.) (Lee and Emala, 2002, American journal of physiology. Renal physiology 282:F844-852).

[3] = tested on: PI3K/AKT and MAPK pathways; assay: AKT and MAPK signaling and Bcl-2 expression by western blot; assay type: cell-based, human
Description: FIG. 12, comprising FIGS. 12A through 12E, is a set of images and graphs showing renalase upregulates Bcl-2, activates PI3K/AKT, ERK, p38, and inhibits JNK. Western blot analysis; P− indicates phosphorylated, activated proteins; signals normalized to GAPDH loading control, then changes in protein phosphorylation (increase=activation, decrease=inhibition) from time 0 are calculated. FIG. 12A: HK-2 and HUVEC cells incubated with renalase for 24 hrs; FIG. 12B: Western blot of time course of AKT and MAPK signaling by renalase, HK-2 cells incubated with renalase for indicated time; changes over baseline in 4c-d are significant (p<0.05); FIG. 12C: Activation of AKT(T308), AKT(5473) and ERK; FIG. 12D: Inhibition of JNK; FIG. 12E: Marked and sustained (60 min) upregulation of p38 by renalase in the presence of cisplatin, western blot for time course, REN=renalase, CP=cisplatin.
MAPK signaling by renalase and renalase peptides. Western blot analysis; ERK: Extracellular signal-Regulated Kinase 1 and 2; JNK: c-Jun N-terminal Kinases; AKT: protein kinase B; p-indicates phosphorylated, activated proteins; representative blot, n=3 (FIG. 20A). Renalase activates AKT (FIG. 20B). Western blot analysis; P− indicates phosphorylated, activated proteins Representative blot, n=3 (FIG. 20B, left panel). Signals normalized to GAPDH loading control; n=3, change over baseline statistically significant (P<0.05) from 1-60 min for ERK, p38 and AKT (T308), and at 30 min only for AKT (S473) (FIG. 20B, right panel). ERK or AKT inhibition abrogates protective effect of RP-H220 (FIG. 20C). Plasma creatinine levels from mice subjected to sham-surgery or to renal ischemia and reperfusion (IR); Renalase WT mice were subjected to sham-surgery or to 30 min renal IR. For mice subjected to renal IR, RP-H220 or vehicle (saline) was injected 10 min prior to renal ischemia. Some animals were pretreated with either the ERK inhibitor PD98059 or the PI3K/AKT inhibitor wortmanin. (N=6-8 per group). *: P<0.05 vs. vehicle-treated mice subjected to sham-surgery; #: P<0.05 vs. vehicle-treated WT mice subjected to renal IR (FIG. 20C).

systemic blood pressure = details: Xu et al., 2005, cited from earlier work
[4] = cited from earlier work
HK-2 cells [5] = assay: HK-2 cell necrosis induced with 2 mM H2O2 (LDH release); assay type: cell-based, human
Description: as §1

plasma norepinephrine = assay: Plasma norepinephrine after renal IR (ELISA); assay type: in vivo; details: 1.5 mg/kg; mice subjected to renal IR; vehicle 2.4±0.13 ng/mL
Description: (§2) Adult male renalase deficient (KO) mice (Wu et al., 2011, Kidney Int 79: 853-860) on a C57BL/6 background were subjected to renal ischemia/reperfusion (IR) as described (Kim et al., 2009, Kidney Int 75: 809-823; Kim et al., 2010, Am J Physiol Renal Physiol 299(2):F347-58). Renalase KO or wild type (WT) mice (C57BL/6 from Harlan Labs, Indianapolis, Ind.) were subjected to sham-operation or to 20 min. (moderate) or 30 min. (severe) renal ischemia and 24 hr. reperfusion. To test the renal protective effects of recombinant human renalase, mice were pretreated with saline (vehicle) or with recombinant renalase (0.5, 1.5 or 4.5 mg/kg, s.c.) 10 min. prior to 30 min. renal ischemia. It was also tested whether renalase treatment after completion of renal ischemia also provides renal protection. Separate cohorts of mice were treated with saline or with renalase (1.5 mg/kg, s.c.) 30 min. or 60 min. after reperfusion of the ischemic kidney. To test whether blocking alpha receptors would mimic the renal protective effects of human recombinant renalase administration, phentolamine (an alpha receptor antagonist, 5 mg/kg, i.p.) was given in some mice 15 min. before renal ischemia.
Plasma norepinephrine in mice subjected to sham-operation or to renal IR was measured with a commercial ELISA kit according to the manufacturer's instructions (Rocky Mountain Diagnostics, Colorado Springs, Colo.).

[6] = tested on: renal ischemia/reperfusion (IR) injury; assay: Murine model of renal ischemia/reperfusion (IR) injury, plasma creatinine; assay type: in vivo, mice
Description: as §2
Plasma creatinine was measured as described with an enzymatic creatinine reagent kit according to the manufacturer's instructions (Thermo Fisher Scientific, Waltham, Mass.) (Slot, 1965, J Clin Lab Invest 17: 381-387).
After animal care and use committee approval, adult male C57BL/6 (Harlan Labs, Indianapolis, Ind.) were subjected to sham-operation or to 30 minutes of renal ischemia followed by 24 hrs of reperfusion as previously described (Lee et al., 2004, American journal of physiology. Renal physiology 286:F298-306). To test the renal protective effects of renalase peptides (RP-220, RP-H220 and RP-224), mice were pretreated with saline (vehicle) or with renalase peptides (100 μg subcutaneous) 10 to 30 minutes prior to renal ischemia.
Blood was collected from mice anesthetized with isoflurane via cardiac puncture into a heparinized syringe and was subsequently centrifuged to separate plasma. Samples were submitted to the Yale O'Brien Kidney Center for measurement of BUN and creatinine. Plasma creatinine was measured either by an enzymatic creatinine reagent kit according to the manufacturer's instructions (Thermo Fisher Scientific, Waltham, Mass.) or by HPLC. These methods of creatinine measurement largely eliminate the interferences from mouse plasma chromagens, known to occur with the Jaffe method.

[7] = treated before renal ischemia, 30 min. ischemia, 24 hr. reperfusion

B1: recombinant renalase: human recombinant renalase, 38 kDa FAD-dependent amine oxidase; renalase polypeptide SEQ ID NO: 9 or 10 (protein, UniProt Q5VYX0 18-342, looked up)
Renalase: ALLRRQTSGPLYLAVWDKAEDSGGRMTTACSPHNPQCTADLGAQYITCTPHYAKKHQRFYDELLAYGVLRPLSSPIEGMVMKEGDCNFVAPQGISSIIKHYLKESGAEVYFRHRVTQINLRDDKWEVSKQTGSPEQFDLIVLTMPVPEILQLQGDITTLISECQRQQLEAVSYSSRYALGLFYEAGTKIDVPWAGQYITSNPCIRFVSIDNKKRNIESSEIGPSLVIHTTVPFGVTYLEHSIEDVQELVFQQLENILPGLPQPIATKCQKWRHSQVTNAAANCPGQMTLHHKPFLACGGDGFTQSNFDGCITSALCVLEALKNYI
apoptotic TUNEL-positive cells in the kidney ([1]; 1.5 mg/kg s.c. 10 min. before renal ischemia): significantly reduced the number of apoptotic TUNEL-positive cells
renal histological injury (hematoxylin and eosin) ([1]; 1.5 mg/kg, renalase WT mice vs. vehicle): dramatically reduced injury
Jablonski scale renal injury score (0-4) ([1]; renalase WT mice, 30 min. renal IR, 24 hr. after IR, vs. vehicle): significantly lower renal injury scores
macrophages infiltrating the kidney after IR (F4/80) [1, 7]: significantly reduced number of macrophages
neutrophils infiltrating the kidney after IR [1, 7]: significantly reduced number of neutrophils
cell survival / protection against cisplatin toxicity (HK-2 cells [2]): improved HK-2 cell survival
cell survival / protection against cisplatin toxicity (HK-2 cells [2]; listed as exogenous renalase): reversed
Bcl-2 expression (HK-2 cells [2]; western blot): increased Bcl-2 expression
caspase-3 activation (HK-2 cells [2]; western blot): decreased caspase-3 activation
cellular renalase expression (HK-2 cells [2]; western blot): restored cellular renalase expression
caspase-3 activation (HK-2 cells [2]; western blot, listed as Renalase): inhibited caspase-3 activation
Bcl-2 expression ([3]; HK-2 and human vein endothelial cells (HUVEC) at 24 hrs): upregulates Bcl-2 expression
decrease in JNK-p54/p46 phosphorylation ([3]; HK-2 cells): ~95%
AKT and MAPK signaling (phosphorylation of ERK, p38, AKT) ([3]; HK-2 cells in culture): rapid and transient increase in phosphorylated
activation of AKT ([3]; at 15 min, HK-2 cells): ~45 fold
activation of ERK ([3]; at 15 min, HK-2 cells): ~35 fold
activation of AKT and p38 ([3]; cells treated with cisplatin): marked and sustained activation
reduction of mean arterial pressure (systemic blood pressure; 4 mg/kg dose): ~40%
blood pressure when injected into rodents (systemic blood pressure): marked decrease in blood pressure
increase in rate of epinephrine metabolism in the presence of NADH [4]: 18 fold
LDH released at 6 hr (HK-2 cells [5]; 10 μg/ml, 2 mM H2O2, vehicle LDH=47+3%): 28±2%
necrosis induced with 2 mM H2O2 (HK-2 cells [5]; vs. vehicle-treated HK-2 cells): significantly reduced necrosis
plasma norepinephrine (plasma norepinephrine): 1.6 ± 0.2 ng/mL
protection against renal IR injury, post-ischemic treatment ([6]; 1.5 mg/kg given 30 min. after reperfusion): protective against renal IR injury
renal protection at higher dose compared with 1.5 mg/kg ([6]; 4.5 mg/kg s.c. 10 min. before renal ischemia): provided reduced renal protection
increases in plasma creatinine after renal IR ([6]; 0.5, 1.5 or 4.5 mg/kg s.c. 10 min. before 30 min. renal ischemia, 24 hr. reperfusion): significantly attenuated the increases in plasma creatinine
protection against renal IR injury, post-ischemic treatment ([6]; given 60 min. after reperfusion): did not provide renal protection
plasma creatinine ([6]; recombinant renalase 1.5 mg/kg, 30 min. warm ischemia, decreased from ~2.4 mg/dL): 1.4 mg/dL
